{
  "source": "the supplement of paper PMC9732359",
  "note": "± gives the uncertainty stated by the source.",
  "data": [
    {"assay": "protein stability index of a GFP-peptide fusion (yeast GPS) (PSI 1-4); higher = more stable; sorted into four equal gates, so the index is relative within each strain", "settings": "doa10∆", "method_in_brief": "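The protein stability index of a peptide was calculated by multiplying its read frequency in each gate by that gate's number and adding the products. The peptides were tiled 17-residue stretches of yeast proteins, fused downstream of GFP on a Cherry-expressing plasmid and carried in yeast as a pooled library. Mid-log cultures in leucine-free medium were sorted into four equal gates by GFP/Cherry ratio, and each gate's plasmids were PCR-amplified and Illumina-sequenced.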", "values": [
      {"sequence": "KPGSIDAISQVINIAKA [FAS1]", "protein stability index": "2.14 ± 0.052"},
      {"sequence": "KPIQNGEIIDISAFTQF [ARP9]", "protein stability index": "3.02 ± 0.098"},
      {"sequence": "KPLKKGSADIGASVISL [SIR4]", "protein stability index": "3.09 ± 0.068"},
      {"sequence": "KPPISDSVFSFGPKKEN [YLR335W/NUP2]", "protein stability index": "2.82 ± 0.065"},
      {"sequence": "KPSKPFNVDDVLKFTFT [MED8]", "protein stability index": "3.1 ± 0.061"},
      {"sequence": "KPVKVALIFIFFAYFIG [YJL039C/NUP192]", "protein stability index": "1.66 ± 0.042"},
      {"sequence": "KPYDINVVLVTNDRLNR [DIS3]", "protein stability index": "1.69 ± 0.085"},
      {"sequence": "KPYYFSNNHKLSESDKK [RPN12]", "protein stability index": "1.23 ± 0.063"},
      {"sequence": "KQFFQMTPLLVNCLELL [PCI8]", "protein stability index": "1.4 ± 0.034"},
      {"sequence": "KQGRIKNATEELLRLAN [CSN12]", "protein stability index": "3.15 ± 0.17"},
      {"sequence": "KQIVHDSGRGAPLAKVV [RPL2A]", "protein stability index": "2.16 ± 0.22"},
      {"sequence": "KQLQQPKSSPLKKNNYN [SIR4]", "protein stability index": "3.03 ± 0.089"},
      {"sequence": "KQQGVGLPTDAYVAIEQ [RPN8]", "protein stability index": "2.78 ± 0.083"},
      {"sequence": "KREKRVFLKHSLSIKLA [RPN6]", "protein stability index": "2.58 ± 0.083"},
      {"sequence": "KRIKPNTEITQKSSKEN [ECM29]", "protein stability index": "2.81 ± 0.081"},
      {"sequence": "KRKCGHTNQLRPKKKLK [RPL40A]", "protein stability index": "2.76 ± 0.038"},
      {"sequence": "KRKSAQEPELSLDQGDA [SMC4]", "protein stability index": "3.23 ± 0.1"},
      {"sequence": "KRLGPKRANNIRKFFGL [RPS6A]", "protein stability index": "3.52 ± 0.077"},
      {"sequence": "KRNGDEVYTLVDSQGLP [ARP7]", "protein stability index": "3.35 ± 0.17"},
      {"sequence": "KRPNNKTLEKLESTIAE [IRR1]", "protein stability index": "3.62 ± 0.14"},
      {"sequence": "KRPYESSRLDAELKLAG [RPS9A]", "protein stability index": "3.24 ± 0.088"},
      {"sequence": "KSAYANTEKDYKMVQEQ [SMC2]", "protein stability index": "2.95 ± 0.053"},
      {"sequence": "KSDDDDHTVDEIDHVEY [SRB8]", "protein stability index": "2.45 ± 0.069"},
      {"sequence": "KSDEAKWKPVLSHIVYF [RPN5]", "protein stability index": "2.29 ± 0.067"},
      {"sequence": "KSGKRKPNIILDEDDTN [RPC31]", "protein stability index": "3.29 ± 0.1"},
      {"sequence": "KSKERSSQFVRLASEPG [YMR129W/POM152]", "protein stability index": "2.65 ± 0.14"},
      {"sequence": "KSKREEEAKSVLPAATK [ARP9]", "protein stability index": "1.1 ± 0.092"},
      {"sequence": "KSLALLGYNFDGSAIED [SNF5]", "protein stability index": "3.01 ± 0.084"},
      {"sequence": "KSLPLLITVMEKSPDPT [YCS4]", "protein stability index": "1.91 ± 0.045"},
      {"sequence": "KSNVIDSMLFVFGFRAN [SMC4]", "protein stability index": "2.26 ± 0.049"},
      {"sequence": "KSSELELQKLVHDLNKY [SMC2]", "protein stability index": "3.22 ± 0.088"},
      {"sequence": "KSSIEKDPSPEILVLYN [SIN4]", "protein stability index": "2.91 ± 0.05"},
      {"sequence": "KSVLGDGKKHSVFYTIL [RPO31]", "protein stability index": "2.19 ± 0.087"},
      {"sequence": "KTAMAELALLNHWRQNK [BRR2]", "protein stability index": "1.39 ± 0.082"},
      {"sequence": "KTARGKAALERLKVFEG [RPL16A]", "protein stability index": "2.28 ± 0.15"},
      {"sequence": "KTDQEEEREGTDQSTEE [CSL4]", "protein stability index": "3.12 ± 0.16"},
      {"sequence": "KTFKNPKYESLKLEYYN [RPN5]", "protein stability index": "2.11 ± 0.083"},
      {"sequence": "KTFSRLDALTRHIKSKH [RPN4]", "protein stability index": "1.11 ± 0.12"},
      {"sequence": "KTKAMVPPINCIFNFLQ [SME1]", "protein stability index": "1.65 ± 0.042"},
      {"sequence": "KTKFQYKFLDQNSDAST [YIL149C/MLP2]", "protein stability index": "3.08 ± 0.1"},
      {"sequence": "KTKTSLLPTIKRTICKK [RPR2]", "protein stability index": "3.27 ± 0.11"},
      {"sequence": "KTKYILQRPTATDEESV [CSN12]", "protein stability index": "3.18 ± 0.084"},
      {"sequence": "KTLKRMIKESSTANPNI [POP1]", "protein stability index": "2.54 ± 0.1"},
      {"sequence": "KTLVYLEKCEAEFKKRK [YCS4]", "protein stability index": "3.42 ± 0.28"},
      {"sequence": "KTQLGSTMTEPVKQSFI [GAL11]", "protein stability index": "2.81 ± 0.051"},
      {"sequence": "KTRKTYCKGKTCRKHTQ [RPL42A]", "protein stability index": "2.45 ± 0.068"},
      {"sequence": "KTRVGSVTAQVYKIALR [RPC82]", "protein stability index": "1.27 ± 0.11"},
      {"sequence": "KTSKRTKRWYKNAGLGF [RPS11A]", "protein stability index": "3.3 ± 0.091"},
      {"sequence": "KTSLSIKVENLNDTTEK [SMC2]", "protein stability index": "2.87 ± 0.058"},
      {"sequence": "KTVKELRQLLKERYTVE [RRI1]", "protein stability index": "2.74 ± 0.054"},
      {"sequence": "KTVPFQVNQLQRILEVL [SSN3]", "protein stability index": "2.27 ± 0.033"}
    ]}
  ]
}
